Measured values taken from patent publication US7851182 (CONARIS RESEARCH INSTITUTE, dated 2010).

B1: sgp130(D1-D3)S3-Fc (Fc fusion)
chain: ELLDPCGYISPESPVVQLHSNFTAVCVLKEKCMDYFHVNANYIVWKTNHFTIPKEQYTIINRTASSVTFTDIASLNIQLTCNILTFGQLEQNVYGITIISGLPPEKPKNLSCIVNEGKKMRCEWDGGRETHLETNFTLKSEWATHKFADCKAKRDTPTSCTVDYSTVYFVNIEVWVEAENALGKVTSDHINFDPVYKVKPNPPHNLSVINSEELSSILKLTWTNPSIKSVIILKYNIQYRTKDASTWSQIPPEDTASTRSSFTVQDLKPFTEYVFRIRCMKEDGKGYWSDWSEEASGITYEDGGGGSGGGGSGGGGS
notes: D4-D6 replaced by three GGGGS repeats; No tags; not shown: IgG-Fc part; its beginning is printed as 'SCD'; detected with an anti-human IgG (Fc) antibody
B2: sgp130(D1-D3)S0-Fc (Fc fusion)
chain: ELLDPCGYISPESPVVQLHSNFTAVCVLKEKCMDYFHVNANYIVWKTNHFTIPKEQYTIINRTASSVTFTDIASLNIQLTCNILTFGQLEQNVYGITIISGLPPEKPKNLSCIVNEGKKMRCEWDGGRETHLETNFTLKSEWATHKFADCKAKRDTPTSCTVDYSTVYFVNIEVWVEAENALGKVTSDHINFDPVYKVKPNPPHNLSVINSEELSSILKLTWTNPSIKSVIILKYNIQYRTKDASTWSQIPPEDTASTRSSFTVQDLKPFTEYVFRIRCMKEDGKGYWSDWSEEASGITYED
notes: No spacer between D3 and Fc; V5 and 6xHis tags are not present; also called sgp130(D1-D3)Fc; sgp130(D1-3)Fc; not shown: IgG-Fc part; its beginning is printed as 'SCD'; detected with an anti-human IgG (Fc) antibody
B3: sgp130(D1-D3)S1-Fc (Fc fusion)
chain: ELLDPCGYISPESPVVQLHSNFTAVCVLKEKCMDYFHVNANYIVWKTNHFTIPKEQYTIINRTASSVTFTDIASLNIQLTCNILTFGQLEQNVYGITIISGLPPEKPKNLSCIVNEGKKMRCEWDGGRETHLETNFTLKSEWATHKFADCKAKRDTPTSCTVDYSTVYFVNIEVWVEAENALGKVTSDHINFDPVYKVKPNPPHNLSVINSEELSSILKLTWTNPSIKSVIILKYNIQYRTKDASTWSQIPPEDTASTRSSFTVQDLKPFTEYVFRIRCMKEDGKGYWSDWSEEASGITYEDGGGGS
notes: D4-D6 replaced by one GGGGS repeat; No tags; not shown: IgG-Fc part; its beginning is printed as 'SCD'; detected with an anti-human IgG (Fc) antibody
B4: sgp130(D1-D3)S2-Fc (Fc fusion)
chain: ELLDPCGYISPESPVVQLHSNFTAVCVLKEKCMDYFHVNANYIVWKTNHFTIPKEQYTIINRTASSVTFTDIASLNIQLTCNILTFGQLEQNVYGITIISGLPPEKPKNLSCIVNEGKKMRCEWDGGRETHLETNFTLKSEWATHKFADCKAKRDTPTSCTVDYSTVYFVNIEVWVEAENALGKVTSDHINFDPVYKVKPNPPHNLSVINSEELSSILKLTWTNPSIKSVIILKYNIQYRTKDASTWSQIPPEDTASTRSSFTVQDLKPFTEYVFRIRCMKEDGKGYWSDWSEEASGITYEDGGGGSGGGGS
notes: D4-D6 replaced by two GGGGS repeats; No tags; not shown: IgG-Fc part; its beginning is printed as 'SCD'; detected with an anti-human IgG (Fc) antibody

What follows are binders tested against T1, IL-6/soluble IL-6 receptor complex (human, UniProt P05231 30-212; P08887 20-358, limits assumed) (assay: ELISA, coated Fc fusion, IL-6 + sIL-6R titrated, anti-sIL-6R detection).
T1 construct: also called IL-6/sIL-6R complex; IL-6/sIL-6R
Excerpt: Comparison of the IL-6/sIL-6R Complex Binding Properties of sgp130Fc and sgp130(D1-D3)S_n-Fc (A) Material The 96-well Microlon microtiter plates were purchased from Greiner Bio-One (Frickenhausen, Germany). Recombinant human IL-6 and soluble IL-6 receptor (sIL-6R) were obtained from BioSource (Solingen, Germany) and R&D Systems (Wiesbaden, Germany), respectively. The primary anti-sIL-6R antibody (clone M91, mouse IgG1) was from Beckman Coulter (Krefeld, Germany). The secondary anti-mouse IgG HRP-conjugated antibody from GE Healthcare (Freiburg, Germany) was the same as in the Western blotting experiments (see Example 1, A and C). Ready-to-use Tetramethylbenzidin (TMB) HRP substrate was purchased from Sigma-Aldrich (Taufkirchen, Germany).
For quality control and comparison between different lots of sgp130Fc variants, a standard ELISA was designed. All steps except for coating were carried out at room temperature, all washing steps were performed three times with a volume of 250 µl, and all conditions were measured in triplicate. A 96 well microtiter plate was coated with 100 ng/Well of original sgp130Fc as an internal standard and an equimolar quantity of sgp130(D1-D3)S_n-Fc in 100 µl PBS at 4° C. overnight. Thus, sgp130Fc and its variants served as capture reagent, while the bound sIL-6R was detected (see below). After washing with 0.05% Tween-20/PBS, wells were blocked with 200 µl/Well 3% BSA/PBS for 2 h. Subsequently, the blocking solution was removed, and wells were incubated for 1 h with a 1:2 dilution series (100 µl/Well) of recombinant human IL-6 (3.2 µg/ml to 50 ng/ml) and sIL-6R (1.6 µg/ml to 25 ng/ml) in 3% BSA/PBS. After washing with 0.05% Tween-20/PBS, wells were incubated with the primary anti-sIL-6R antibody diluted 1:2,000 in 3% BSA/PBS (100 µl/Well) for 1 h. Another series of three washing steps with 0.05% Tween-20/PBS was followed by a 1-h incubation with the secondary anti-mouse IgG HRP-conjugated antibody at 1:5,000 (100 µl/Well). After washing with 0.05% Tween-20/PBS and subsequently with dH_2O, plates were incubated with 100 µl/Well TMB substrate for about 5 min (depending on the intensity of the developing blue colour). The substrate reaction was stopped by adding 100 µl/Well 0.5 M sulfuric acid to the wells. Finally, the $A450$ was measured in a microplate reader.
B1: binds.
B2: binds.
B3: binds.
B4: binds.
